Patent publication US20140087991A1, “PEPTIDE PRODRUGS” (The Johns Hopkins University, priority 2006, published 2014)
pIC50: −log10 of the molar value. Ends that are not written are not given here. Peptide text beside a SMILES is read from it.

How the values were obtained:
FAP [1] = molecular target: T1, FAP (Homo sapiens, UniProt Q12884); experiment: FAP dipeptidyl peptidase assay; format: biochemical
T1 construct: the extracellular domain of FAP was cloned with a His-6 tag; made in house
T1 sequence (Q12884 26-760 limits assumed): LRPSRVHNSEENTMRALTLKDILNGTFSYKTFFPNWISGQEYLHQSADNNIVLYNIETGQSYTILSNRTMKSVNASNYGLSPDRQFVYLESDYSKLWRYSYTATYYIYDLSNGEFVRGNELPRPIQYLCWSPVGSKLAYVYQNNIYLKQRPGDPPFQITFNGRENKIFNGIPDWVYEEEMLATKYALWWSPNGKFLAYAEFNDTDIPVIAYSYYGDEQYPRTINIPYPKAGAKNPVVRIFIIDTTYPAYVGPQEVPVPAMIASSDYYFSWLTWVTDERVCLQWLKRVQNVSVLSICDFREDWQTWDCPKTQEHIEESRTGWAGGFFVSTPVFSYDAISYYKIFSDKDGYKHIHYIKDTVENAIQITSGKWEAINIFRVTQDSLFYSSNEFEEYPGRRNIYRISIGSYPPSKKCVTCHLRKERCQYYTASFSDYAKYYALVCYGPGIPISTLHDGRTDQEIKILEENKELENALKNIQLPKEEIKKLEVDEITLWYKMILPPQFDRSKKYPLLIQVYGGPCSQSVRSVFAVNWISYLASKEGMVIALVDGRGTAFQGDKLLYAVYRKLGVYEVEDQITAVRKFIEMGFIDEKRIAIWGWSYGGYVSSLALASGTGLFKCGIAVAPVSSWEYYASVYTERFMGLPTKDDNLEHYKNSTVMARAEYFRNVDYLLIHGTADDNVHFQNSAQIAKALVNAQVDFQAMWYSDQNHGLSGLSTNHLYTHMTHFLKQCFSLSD
Protocol: Quantitative assay for dipeptidyl peptidase activity were developed using Ala-Pro-AFC as the substrate as described by Park et al^18. Purified protein was mixed with 5-10-fold volumes of reaction buffer (100 mM NaCl, 100 mM Tris, pH 7.8), and added to an equal volume of 0.5 mM Ala-Pro-AFC in reaction buffer followed by incubation for 1 h at 37° C. Release of free AFC was measured in a DTX 880 Multimode Detector (Beckman, Fullerton, Calif.) using the 395 nm excitation/530 nm emission filter set.

all cell lines tested = experiment: Cytotoxicity, average IC50 over cell lines; format: cell-based
FAP [2] = molecular target: T2, FAP (Homo sapiens, UniProt Q12884); conditions: previously demonstrated; cited from earlier work
T2 sequence (Q12884 1-760): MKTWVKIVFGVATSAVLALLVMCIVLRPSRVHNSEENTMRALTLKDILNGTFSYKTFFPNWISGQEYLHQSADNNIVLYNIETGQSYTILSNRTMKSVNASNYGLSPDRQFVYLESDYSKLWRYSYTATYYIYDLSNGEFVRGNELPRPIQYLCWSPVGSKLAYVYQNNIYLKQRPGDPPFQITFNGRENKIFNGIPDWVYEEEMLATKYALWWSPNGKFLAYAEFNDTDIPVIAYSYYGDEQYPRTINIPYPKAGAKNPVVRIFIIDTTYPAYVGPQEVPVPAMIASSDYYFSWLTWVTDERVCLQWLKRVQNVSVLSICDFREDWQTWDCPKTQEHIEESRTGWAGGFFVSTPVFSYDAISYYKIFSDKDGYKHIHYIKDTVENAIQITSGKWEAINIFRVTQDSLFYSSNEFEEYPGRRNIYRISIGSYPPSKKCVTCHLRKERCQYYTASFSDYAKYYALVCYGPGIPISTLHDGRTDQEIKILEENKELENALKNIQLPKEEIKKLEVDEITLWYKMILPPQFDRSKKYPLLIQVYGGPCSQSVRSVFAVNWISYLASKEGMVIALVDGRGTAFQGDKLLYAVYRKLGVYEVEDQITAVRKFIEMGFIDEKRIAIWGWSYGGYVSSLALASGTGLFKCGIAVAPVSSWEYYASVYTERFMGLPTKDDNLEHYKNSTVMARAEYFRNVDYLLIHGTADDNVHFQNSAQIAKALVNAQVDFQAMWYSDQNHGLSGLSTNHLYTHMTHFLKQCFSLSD

FAP [3] = molecular target: T1, FAP; experiment: FAP gelatinase and collagenase assay with quenched (DQ) proteins; format: biochemical; conditions: 100 μgs/ml protein substrate
Protocol: Quenched gelatin and collagen conjugates were used to detect and confirm FAP's gelatinase and collagenase activity. DQ™ Gelatin from pig skin, DQ™ collagen, type IV from human placenta, DQ™ collagen, type I from bovine skin, all as fluorescent conjugates (Invitrogen, Rockville, Md.) were digested with FAP and digestion monitored on a fluorescence plate reader. Protein substrates were dissolved in reaction buffer (100 mM NaCl, 100 mM Tris, pH 7.8) to a final concentration of 100 μgs/ml. Trypsin digestion was used as a positive control. As a negative control the His tagged extra cellular domain of Prostate Specific Membrane Antigen (PSMA), which was similarly purified from S2 cells under the same conditions as FAP. Fluorescent quenched DQ™ Bovine Serum Albumin was used as a negative control for FAP protease activity.
Quenched forms of Gelatin and Collagen were used to confirm the gelatinase and collagenase activity of recombinant FAP. Quenching is achieved by labeling these proteins with the fluorophore FITC such that fluorescence signal from the intact protein is minimal due to is self-quenching by the fluorphore. Protein digestion releases FITC-labeled fragments that result in measurable increase in overall fluorescence signal from the reaction mixture. […] On a relative basis gelatin was digested ˜10-fold better by FAP than collagen I. MALDI analysis of digested fragments was performed to confirm hydrolysis.

His-tagged FAP = molecular target: T3, His-tagged FAP (Homo sapiens, UniProt Q12884); experiment: FAP hydrolysis of MCA/DNP fluorescence quenched peptide substrates; format: biochemical
T3 construct: the extracellular domain of FAP was cloned with a His-6 tag; made in house
T3 sequence (Q12884 26-760 limits assumed): T1 sequence (Q12884 26-760 limits assumed)
Protocol: Quenched substrates were prepared by using the MCA/DNP fluorophore/quencher pair. Synthesis of peptides was done using standard Fmoc solid phase coupling on NovaTag™ Dnp resin with a substitution level of 0.4 mmole/g (Novabiochem, San Diego, Calif.). N-terminal capping was done twice overnight with N-(7-methoxycoumarin-4-acetyloxy)succinimide (MCA-Osu) and 1-Hydroxybenzotriazole (HOBt) in N-Methyl 2 Pyrrolidone (NMP). Peptides were cleaved with 95% TFA, 2.5% TIS and 2.5% water. The purity and mass of each quenched peptide was confirmed by Reversed Phase-HPLC and MALDI-TOF analysis.
Quenched peptide substrates were weighed and dissolved in DMSO to obtain a final concentration of 50 mM and were stored at −20° C. until later use. Dilutions (e.g. 200 μM, 100 μM, 50 μM, 25 μM) were prepared in duplicates in the reaction buffer. His-tagged FAP was added to a final concentration of 5 nM. Release of free MCA was measured at excitation 355 nm and emission 460 nm in a 96-well fluorescence plate reader. Controls consisted of substrates in buffer±BSA.
On the basis of the 8.5 kDa gelatin cleavage map a series of fluorescence quenched substrates were prepared (colored sequences in Table 3) by using the Methoxycoumarin (MCA)/Dinitrophenyl (DNP) FRET combination (52). […]

[4] = tested on: FAP-transfected MDA-MB-231 cells; experiment: Hydrolysis of quenched peptides by FAP-transfected MDA-MB-231 cells; format: cell-based, human; conditions: 50 μM in serum containing media
From the text: Human breast cancer cell lines MCF-7 and MDA-MB-231 were selected for transfection because the cells were negative for FAP when grown under standard culture conditions (25). Details of transfection methodology are described in methods section of Specific Aim 2 below. Briefly, a 2.2 kb PCR fragment was purified by gel electrophoresis, digested with NheI and cloned into bicistronic pIRES vector (kindly provided by Dr. Ben Park, The Johns Hopkins University) previously digested with Nhe 1. Final construct was designated as pFAPIRES. Sequencing primers were designed for the entire length of the gene and were confirmed to be correct. The cells were transfected using Fugene 6 (Roche). Control transfections were done on the same lines with the empty IRES vector. Cells were characterized for production of FAP by Flow Cytometry (FIG. 17A-FIG. 17D).
(§1) Subsequently, one of the MDA-MB-231 clones was used to evaluate FAP activity in vitro. In this assay cells were grown in serum containing media to 70% confluency followed by addition of fluorescence quenched peptides into the media at concentration of 50 μM. As a control cell lines transfected with the carboxypeptidase PSMA using the same vector system were used. Cells were incubated with three different FAP substrates, FIG. 18.

[5] = tested on: control cells transfected with PSMA; experiment: Hydrolysis of quenched peptides by control cells transfected with PSMA; format: cell-based, human; conditions: 50 μM
Protocol: as §1

FAP [6] = molecular target: T1, FAP; experiment: Digestion of human collagen I and recombinant gelatins with FAP (SDS-PAGE, MALDI); format: biochemical; conditions: SDS PAGE and MALDI spectra
Protocol: Human collagen I (Becton Dickinson, Franklin Lakes, N.J.) and recombinant human gelatins of 100 KDa and 8.5 KDa (Fibrogen, San Francisco, Calif.) were dissolved in reaction buffer to a final concentration of 100-300 μg/ml. 0.5-1 μg of FAP was added per 100 μgs of protein substrate. Digestion was done for 4-6 hrs at 37° C. As a positive control trypsin digestion was used. As a negative control, protein solutions were incubated either with BSA or buffer only. Peptide fragments of a size <30 KDa were purified using 30 KDa Microcon spin filter (Millipore, Billerica, Mass.).
In an effort to elucidate the substrate specificity of FAP, we examined FAP digests of unlabeled human Collagen I using matrix assisted laser desorption ionization (MALDI) time of flight mass spectrometry. Digestion reactions were performed at a substrate to protease mass ratio of 200:1 using recombinant FAP or modified trypsin as a control. Two negative controls of Collagen alone and FAP alone were also included to identify any peptides due to autolysis/degradation of these proteins. […]
As Collagen I and Gelatin are currently the only known protein substrates for FAP, we developed an alternative method to identify FAP-selective cleavage sites within these proteins. […] The masses of fragments <3 KDa were purified for MALDI spectra and again analyzed using the FindPept tool. […]

Molecule: C[C@H](N)C(=O)N1CCC[C@H]1C(=O)Nc1ccc2c(C(F)(F)F)cc(=O)oc2c1 [Ala-Pro-AFC] (HELM PEPTIDE1{A.P.[O=c1cc(C(F)(F)F)c2ccc(N[*:1])cc2o1]}$$$$V2.0)
- cleavage of dipeptide substrate by purified FAP (FAP [1]): same kinetic parameters as previously described

Molecule: CC(=O)O[C@H]1C(=O)[C@@]2(C)[C@H]([C@H](OC(=O)c3ccccc3)[C@]3(O)C[C@H](OC(=O)[C@H](O)[C@@H](NC(=O)c4ccccc4)c4ccccc4)C(C)=C1C3(C)C)[C@]1(OC(C)=O)CO[C@@H]1C[C@@H]2O [paclitaxel]
- pIC50 (all cell lines tested): 8.00

Molecule: C/C=C(/C)C(=O)O[C@H]1C(C)=C2[C@H]([C@@H]1OC(=O)CCCCCCC)[C@@](C)(OC(C)=O)C[C@H](OC(=O)CCC)[C@@]1(O)[C@H]2OC(=O)[C@@]1(C)O [thapsigargin]
- pIC50 (all cell lines tested): 10.00

Molecule: Collagen I: FITC-quenched DQ collagen I from bovine skin; in b297 Collagen I of the cited literature
- cleavage by FAP (FAP [2]): could cleave
- hydrolysis of FITC-quenched protein by FAP (FAP [3]): readily hydrolyzed

Molecule: Collagen IV: FITC-quenched DQ collagen IV from human placenta; in b297 Collagen IV of the cited literature
- cleavage by FAP (FAP [2]): not
- hydrolysis of FITC-quenched protein by FAP (FAP [3]): not all digested

Molecule: VGPAGK (also: MCA/DNP quench labels) [tested as MCA/DNP fluorescence quenched substrate]
- Km (His-tagged FAP; FAP hydrolysis of quenched substrate, Michaelis Menten): ~50 µM
- hydrolysis by FAP (His-tagged FAP; substrate at 25 μM): rapidly hydrolyzed
- hydrolysis by FAP-positive cells [4]: appreciably hydrolyzed
- hydrolysis by control media [5]: relatively stable to hydrolysis

Molecule: fibronectin
- cleavage by FAP (FAP [2]): not

Molecule: human Collagen I: unlabeled human collagen I (Becton Dickinson)
- digestion by FAP (FAP [6]): cleaved by FAP at certain specific sites
